The values below come from publication PMC7954794 (2021).

B1: S. cerevisiae Abp1 (full length; SH3 domain 535-592 mutated) / Hua2 (parent complex)
chain 1: MALEPIDYTTHSREIDAEYLKIVRGSDPDTTWLIISPNAKKEYEPESTGSSFHDFLQLFDETKVQYGLARVSPPGSDVEKIIIIGWCPDSAPLKTRASFAANFAAVANNLFKGYHVQVTARDEDDLDENELLMKISNAAGARYSIQTSSKQQGKASTPPVKKSFTPSKSPAPVSKKEPVKTPSPAPAAKISSRVNDNNDDDDWNEPELKERDFDQAPLKPNQSSYKPIGKIDLQKVIAEEKAKEDPRLVQKPTAAGSKIDPSSDIANLKNESKLKRDSEFNSFLGTTKPPSMTESSLKNDDDKVIKGFRNEKSPAQLWAERKAKQNSGNAETKAEAPKPEVPEDEPEGEPDVKDLKSKFEGLAASEKEEEEMENKFAPPPKKSEPTIISPKPFSKPQEPVKAEEAEQPKTDYKKIGNPLPGMHIEADNEEEPEENDDDWDDDEDEAAQPPLPSRNVASGAPVQKEEPEQEEIAPSLPSRNSIPAPKQEEAPEQAPEEEIEEEAEEAAPQLPSRSSAAPPPPPRRATPEKKPKENPWATAEYDYDAAEDNELTFVENDKIINIEFVDDDWWLGELEKDGSKGLFPSNYVSLGN
chain 2: MQQTKFGKMYLDHDSVVEYSEDEIVEADRITLGYKKRLSMIENQMRHLLEDFSLDVQQIEPILADLQKYYDAFLQLLQKRNKSLQCKRSTHQPVPSPMNSQTSTNAKVNLSGKLMKFQLNSVQKFDEENILRILQNKIEFEHYFQIDKGKKQKVLLLAVYQCLNGPTRLHKVLNIEGIIHNNSIRTILGKQVSSSKWTVFLYDVKLVLLAHRQDVPNLETSKMIVRYGDLFPCALYFKDHTAY

Variants of B1 are the subject of this assay. The experiment in a line: DHFR protein-fragment complementation in yeast (Abp1-DHFR F[1,2] x partner-DHFR F[3]), deep mutational scanning, second methotrexate selection vs reference; S. cerevisiae, DHFR-PCA selection in liquid with methotrexate at 30 C, two 72 h selections (the score uses the second); reference = the pre-selection culture.
For the variant chain 1 MALEPIDYTTHSREIDAEYLKIVRGSDPDTTWLIISPNAKKEYEPESTGSSFHDFLQLFDETKVQYGLARVSPPGSDVEKIIIIGWCPDSAPLKTRASFAANFAAVANNLFKGYHVQVTARDEDDLDENELLMKISNAAGARYSIQTSSKQQGKASTPPVKKSFTPSKSPAPVSKKEPVKTPSPAPAAKISSRVNDNNDDDDWNEPELKERDFDQAPLKPNQSSYKPIGKIDLQKVIAEEKAKEDPRLVQKPTAAGSKIDPSSDIANLKNESKLKRDSEFNSFLGTTKPPSMTESSLKNDDDKVIKGFRNEKSPAQLWAERKAKQNSGNAETKAEAPKPEVPEDEPEGEPDVKDLKSKFEGLAASEKEEEEMENKFAPPPKKSEPTIISPKPFSKPQEPVKAEEAEQPKTDYKKIGNPLPGMHIEADNEEEPEENDDDWDDDEDEAAQPPLPSRNVASGAPVQKEEPEQEEIAPSLPSRNSIPAPKQEEAPEQAPEEEIEEEAEEAAPQLPSRSSAAPPPPPRRATPEKKPKENPWATAEYDYDAAEDNELTFVENDKIINIEFVDDDWWLGELEKDGSKGLFPRNYVSLGN [chain 1 S585R], the screen value is -1.55 DMS score: mean over two replicates of log2(f_test/f_ref + 0.5)/ln 2, minus the synonymous-codon median (not a log2 …. With chain 1 MALEPIDYTTHSREIDAEYLKIVRGSDPDTTWLIISPNAKKEYEPESTGSSFHDFLQLFDETKVQYGLARVSPPGSDVEKIIIIGWCPDSAPLKTRASFAANFAAVANNLFKGYHVQVTARDEDDLDENELLMKISNAAGARYSIQTSSKQQGKASTPPVKKSFTPSKSPAPVSKKEPVKTPSPAPAAKISSRVNDNNDDDDWNEPELKERDFDQAPLKPNQSSYKPIGKIDLQKVIAEEKAKEDPRLVQKPTAAGSKIDPSSDIANLKNESKLKRDSEFNSFLGTTKPPSMTESSLKNDDDKVIKGFRNEKSPAQLWAERKAKQNSGNAETKAEAPKPEVPEDEPEGEPDVKDLKSKFEGLAASEKEEEEMENKFAPPPKKSEPTIISPKPFSKPQEPVKAEEAEQPKTDYKKIGNPLPGMHIEADNEEEPEENDDDWDDDEDEAAQPPLPSRNVASGAPVQKEEPEQEEIAPSLPSRNSIPAPKQEEAPEQAPEEEIEEEAEEAAPQLPSRSSAAPPPPPRRATPEKKPKENPWATAEYDYDAAEDNELTFVENDKIINIIFVDDDWWLGELEKDGSKGLFPSNYVSLGN [chain 1 E563I], the screen value is -1.57 DMS score: mean over two replicates of log2(f_test/f_ref + 0.5)/ln 2, minus the synonymous-codon median (not a log2 …. In the case of chain 1 MALEPIDYTTHSREIDAEYLKIVRGSDPDTTWLIISPNAKKEYEPESTGSSFHDFLQLFDETKVQYGLARVSPPGSDVEKIIIIGWCPDSAPLKTRASFAANFAAVANNLFKGYHVQVTARDEDDLDENELLMKISNAAGARYSIQTSSKQQGKASTPPVKKSFTPSKSPAPVSKKEPVKTPSPAPAAKISSRVNDNNDDDDWNEPELKERDFDQAPLKPNQSSYKPIGKIDLQKVIAEEKAKEDPRLVQKPTAAGSKIDPSSDIANLKNESKLKRDSEFNSFLGTTKPPSMTESSLKNDDDKVIKGFRNEKSPAQLWAERKAKQNSGNAETKAEAPKPEVPEDEPEGEPDVKDLKSKFEGLAASEKEEEEMENKFAPPPKKSEPTIISPKPFSKPQEPVKAEEAEQPKTDYKKIGNPLPGMHIEADNEEEPEENDDDWDDDEDEAAQPPLPSRNVASGAPVQKEEPEQEEIAPSLPSRNSIPAPKQEEAPEQAPEEEIEEEAEEAAPQLPSRSSAAPPPPPRRATPEKKPKENKWATAEYDYDAAEDNELTFVENDKIINIEFVDDDWWLGELEKDGSKGLFPSNYVSLGN [chain 1 P535K], the screen value is -0.44 DMS score: mean over two replicates of log2(f_test/f_ref + 0.5)/ln 2, minus the synonymous-codon median (not a log2 …. In the case of chain 1 MALEPIDYTTHSREIDAEYLKIVRGSDPDTTWLIISPNAKKEYEPESTGSSFHDFLQLFDETKVQYGLARVSPPGSDVEKIIIIGWCPDSAPLKTRASFAANFAAVANNLFKGYHVQVTARDEDDLDENELLMKISNAAGARYSIQTSSKQQGKASTPPVKKSFTPSKSPAPVSKKEPVKTPSPAPAAKISSRVNDNNDDDDWNEPELKERDFDQAPLKPNQSSYKPIGKIDLQKVIAEEKAKEDPRLVQKPTAAGSKIDPSSDIANLKNESKLKRDSEFNSFLGTTKPPSMTESSLKNDDDKVIKGFRNEKSPAQLWAERKAKQNSGNAETKAEAPKPEVPEDEPEGEPDVKDLKSKFEGLAASEKEEEEMENKFAPPPKKSEPTIISPKPFSKPQEPVKAEEAEQPKTDYKKIGNPLPGMHIEADNEEEPEENDDDWDDDEDEAAQPPLPSRNVASGAPVQKEEPEQEEIAPSLPSRNSIPAPKQEEAPEQAPEEEIEEEAEEAAPQLPSRSSAAPPPPPRRATPEKKPKENPWATAEYDYDADEDNELTFVENDKIINIEFVDDDWWLGELEKDGSKGLFPSNYVSLGN [chain 1 A546D] it was 0.862 DMS score: mean over two replicates of log2(f_test/f_ref + 0.5)/ln 2, minus the synonymous-codon median (not a log2 …; in that of chain 1 MALEPIDYTTHSREIDAEYLKIVRGSDPDTTWLIISPNAKKEYEPESTGSSFHDFLQLFDETKVQYGLARVSPPGSDVEKIIIIGWCPDSAPLKTRASFAANFAAVANNLFKGYHVQVTARDEDDLDENELLMKISNAAGARYSIQTSSKQQGKASTPPVKKSFTPSKSPAPVSKKEPVKTPSPAPAAKISSRVNDNNDDDDWNEPELKERDFDQAPLKPNQSSYKPIGKIDLQKVIAEEKAKEDPRLVQKPTAAGSKIDPSSDIANLKNESKLKRDSEFNSFLGTTKPPSMTESSLKNDDDKVIKGFRNEKSPAQLWAERKAKQNSGNAETKAEAPKPEVPEDEPEGEPDVKDLKSKFEGLAASEKEEEEMENKFAPPPKKSEPTIISPKPFSKPQEPVKAEEAEQPKTDYKKIGNPLPGMHIEADNEEEPEENDDDWDDDEDEAAQPPLPSRNVASGAPVQKEEPEQEEIAPSLPSRNSIPAPKQEEAPEQAPEEEIEEEAEEAAPQLPSRSSAAPPPPPRRATPEKKPKENPWATAEYDYDAAEDNELTFVENDKIINIEFVDDDWWLGELEKDGSIGLFPSNYVSLGN [chain 1 K580I], -0.165 DMS score: mean over two replicates of log2(f_test/f_ref + 0.5)/ln 2, minus the synonymous-codon median (not a log2 ….
